Data taken from patent US7560248 (WISCONSIN ALUMNI RESEARCH FOUNDATION, dated 2009).
Where a chain is given by its changes, count along the chain named. In names and notes the source's numbering stands.

B1: C95A/C96A/C329A/C330A human ribonuclease inhibitor (other)
chain: SLDIQSLDIQCEELSDARWAELLPLLQQCQVVRLDDCGLTEARCKDISSALRVNPALAELNLRSNELGDVGVHCVLQGLQTPSCKIQKLSLQNAALTGAGCGVLSSTLRTLPTLQELHLSDNLLGDAGLQLLCEGLLDPQCRLEKLQLEYCSLSAASCEPLASVLRAKPDFKELTVSNNDINEAGVRVLCQGLKDSPCQLEALKLESCGVTSDNCRDLCGIVASKASLRELALGSNKLGDVGMAELCPGLLHPSSRLRTLWIWECGITAKGCGDLCRVLRAKESLKELSLAGNELGDEGARLLCETLLEPGCQLESLWVKSCSFTAAAASHFSSVLAQNRFLLELQISNNRLEDAGVRELCQGLGQPGSVLRVLWLADCDVSDSSCSSLAATLLANHSLRELDLSNNCLGDAGILQLVESVRQPGCLLEQLVLYDIYWSEEMEDRLQALEKDKPSLRVIS
notes: Variant with all four substitutions; also called C95A/C96A/C329A/C330A hRI
B2: ribonuclease A (enzyme, UniProt P61823 27-150, looked up)
chain: KETAAAKFERQHMDSSTSAASSSNYCNQMMKSRNLTKDRCKPVNTFVHESLADVQAVCSQKNVACKNGQTNCYQSYSTMSITDCRETGSSKYPNCAYKTTQANKHIIVACEGNPYVPVHFDASV
notes: also called RNASE A; RNase A

Tests used:
ribonuclease A = target: B2; assay: affinity chromatography on RNase A-Sepharose 4B resin
[1] = target: T1, C329A human ribonuclease inhibitor (human, UniProt P13489 2-461, limits assumed); assay: inhibition of RNase A activity, poly(C) cleavage assay
T1 construct: also called C329A hRI
T1 sequence: B1 chain with A94C, A95C, A329C
Experimental: (§1) A solution (101) of 20 mM HEPES-HCl buffer, pH 7.6, containing KCl (50 mM) and RNASE A (80 nM) was added to each of the hRI solutions. The resulting mixtures were incubated at 37° C. for 5 min. The ribonucleolytic activity in each mixture was then assessed by using a spectrophotometric assay for poly(C) cleavage, as described (delCardayre et al., 1995), with [poly(C)]=37 μM. This experiment was performed at least twice with wild-type hRI and each variant.

[2] = target: T2, C330A human ribonuclease inhibitor (human, UniProt P13489 2-461, limits assumed); assay: as above
T2 construct: also called C330A hRI
T2 sequence: B1 chain with A94C, A95C, A328C
Experimental: as §1

[3] = target: T3, C95A/C96A human ribonuclease inhibitor (human, UniProt P13489 2-461, limits assumed); assay: affinity chromatography on RNase A-Sepharose 4B resin
T3 construct: also called C95A/C96A hRI
T3 sequence: B1 chain with A328C, A329C

[4] = target: T4, wild-type human ribonuclease inhibitor (human, UniProt P13489 2-461, limits assumed); assay: as above
T4 construct: Made in E. coli from plasmid pET-RI; also called hRI; wild-type hRI
T4 sequence: B1 chain with A94C, A95C, A328C, A329C

[5] = target: T5, C329A/C330A human ribonuclease inhibitor (human, UniProt P13489 2-461, limits assumed); assay: as above
T5 construct: also called C329A/C330A hRI
T5 sequence: B1 chain with A94C, A95C

Measured: binding result

B1
binds: ribonuclease A

B2
binds: [1] | [2] | [3] | [4] | [5]
